Reference: patent US20190112365A1 (EISAI R AND D MANAGEMENT, published 2019)
Substitutions are numbered along the chain they refer to. Values joined by “and” are separate entries in the source; they are usually repeats but may differ in a detail not shown here. Equal values may be shown once.

T1: HVPGG site of Tau (15-mer array peptides containing HVPGG) (human)
T1 peptide: HVPGG

B1: 7G6-HCzu25-LCzu18 (antibody, human IgG1, kappa)
heavy: not shown
light: DIQMTQSPSSLSASVGDRVTITCRSSQSILHSNGNTYLEWYQQKPGKAPKLLISKVSNRFSGVPSRFSGSGSGTDFTLTISSLQPEDFATYYCFQGSHVPFTFGQGTKLEIKRTVAAPSVFIFPPSDEQLKSGTASVVCLLNNFYPREAKVQWKVDNALQSGNSQESVTEQDSKDSTYSLSSTLTLSKADYEKHKVYACEVTHQGLSSPVTKSFNRGEC
notes: humanized, human IgG1 kappa; also called 7G6-zuHC25-zuLC18; 7G6-HCzu25-LCzu18-HEK
B2: 7G6-HCzu8-LCzu6 (antibody, human IgG1, kappa, V domains shown)
VH: QVQLVQSGAEVKKPGASVKVSCKASGYTFTTYWITWVRQAPGQGLEWMGDIYPGSSISNYAQKFQGRVTMTRDTSTSTVYMELSSLRSEDTAVYYCAREDGYDAWFAYWGQGTLVTVSS
VL: DVVMTQSPLSLPVTLGQPASISCRSSQSILHSNGNTYLEWYQQRPGQSPRLLISKVSNRFSGVPDRFSGSGSGTDFTLKISRVEAEDVGVYYCFQGSHVPFTFGQGTKLEIKR
modifications: N-terminal pyroglutamic acid
notes: humanized, human IgG1 kappa; also called 7G6-HCzu8-LCzu6-HEK; ATCC PTA-124523
B3: 7G6-HCzu23-LCzu15 (antibody, human IgG1, kappa)
heavy: not shown
light: B1 light with I2V
notes: humanized, human IgG1 kappa
B4: 7G6-HCzu25-LCzu15 (antibody, human IgG1, kappa)
heavy: not shown
light: B1 light with I2V
notes: humanized, human IgG1 kappa
B5: 7G6-HCzu23-LCzu18 (antibody, human IgG1, kappa)
heavy: not shown
light: B1 light
notes: humanized, human IgG1 kappa
B6: 7G6-HCzu24-LCzu15 (antibody, human IgG1, kappa)
heavy: not shown
light: B1 light with I2V
notes: humanized, human IgG1 kappa
B7: 7G6-HCzu24-LCzu18 (antibody, human IgG1, kappa)
heavy: not shown
light: B1 light
notes: humanized, human IgG1 kappa
B8: 7G6-HCzu8-LCzu21 (antibody, human IgG1, kappa, V domains shown)
VH: B2 VH
VL: B2 VL with Y41F
modifications: N-terminal pyroglutamic acid
notes: humanized, human IgG1 kappa

target: T2, Human Tau 2N4R, wild type, recombinant full length (human, UniProt P10636 2-758); assay: SPR BIAcore, anti-human Fc capture, multi-cycle, 1:1 Langmuir, average of flow cells
T2 construct: Full length 2N4R isoform; monomer in SPR and ELISA; heparin-induced aggregates or seeds in the functional assays; also called Tau441; Tau-441
T2 sequence (P10636 other isoform, or with tags, fused parts or gaps limits assumed): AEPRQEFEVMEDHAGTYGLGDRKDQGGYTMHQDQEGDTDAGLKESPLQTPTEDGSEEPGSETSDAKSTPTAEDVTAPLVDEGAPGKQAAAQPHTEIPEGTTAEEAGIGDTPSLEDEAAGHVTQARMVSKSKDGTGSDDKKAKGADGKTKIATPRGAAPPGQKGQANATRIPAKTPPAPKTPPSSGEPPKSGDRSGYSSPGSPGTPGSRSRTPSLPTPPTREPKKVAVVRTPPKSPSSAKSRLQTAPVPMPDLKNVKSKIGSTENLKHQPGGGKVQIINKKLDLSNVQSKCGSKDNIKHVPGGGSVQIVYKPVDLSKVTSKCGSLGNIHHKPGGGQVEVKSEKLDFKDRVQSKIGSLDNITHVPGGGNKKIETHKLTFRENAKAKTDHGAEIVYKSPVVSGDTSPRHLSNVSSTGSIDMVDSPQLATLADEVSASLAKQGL
Description: A 0 nM Tau protein solution was prepared by adding 3 mL Assay Running Buffer to labeled 5 mL tube. Analyte dilutions were transferred to labeled 4 mL plastic vials and capped with type 5 caps, vortexed briefly to remove any air bubbles adhered to tube walls or bottom, and placed in Sample and Reagent Rack 1. For chip conditioning analyte sample, 5 μL of 1 μM Tau protein solution supernatant was removed and diluted to 500 μL in Assay Buffer in a 7 mm plastic vial, capped, vortexed briefly to dislodge adhered air bubbles, and placed in Sample and Reagent Rack 1. Humanized antibodies were captured on flow cells 2, 3, and 4 sequentially at a flow rate of 10 μL/min for a contact time of 36 sec. Dilutions of Tau protein were injected over all 4 flow cells at a flow rate of 30 μL/min for a contact time of 300 sec. Dissociation was followed for 1800 sec. Following each cycle, the surface was regenerated by two sequential injections of 30 sec at 30 μL/min of 3 M MgCl₂ over all four flow cells. After the run, kinetic data fitting was performed using a 1:1 Langmuir model.
The affinity of recombinant human wild-type 2N4R Tau protein to 7G6-HCzu25LCzu18 antibody was determined using an antibody-capture format assay. Following capture of 7G6-HCzu25LCzu18 antibody, human Tau protein was injected over the ligand surface for 300 sec, followed by observation and measurement of dissociation for 1800 sec. After each antibody capture, Tau protein binding, and dissociation cycle, the chip surface was regenerated to the anti-human antibody capture surface using 3M MgCl₂, as required by the manufacturer. Tau protein was analyzed in a concentration range from 100 nM to 0.046 nM (3-fold diluted). The assay was performed in multi-cycle mode, such that a dissociation was performed for each tau protein injection. Each ligand was analyzed on all three flow cells (fc2, fc3, and fc4) in triplicate, in order to eliminate any flow cell-specific effects.
Binding data was double-referenced, meaning referenced to both fc1 with no ligand bound and to buffer analyte injections (0 nM Tau protein). […]

Kd	koff	kon	Binder
0.0657 nM and 0.0659 nM and 0.0645 nM	0.000126 s⁻¹ (2×) and 0.000123 s⁻¹	1.92e+06 M⁻¹ s⁻¹ and 1.91e+06 M⁻¹ s⁻¹	B1

target: T2, Human Tau 2N4R, wild type, recombinant …; assay: SPR BIAcore, anti-human capture, monomeric Tau, 1:1 Langmuir
Description: (§1) All experiments were performed using a BIAcore™ T-100 instrument (GE Healthcare). 10 μL anti-human IgG (monoclonal mouse anti-human Fc) from human antibody capture kit (GE Healthcare) was diluted to 25 μL/mL in 200 μL final immobilization buffer (10 mM sodium acetate, pH 5.0). The flow rate was set to 5 μL/min, flowpath 1. Fifty μL N-hydroxysuccinamide (NETS) and 50 μL 1-ethyl-3-(3-dimethylaminopropyl) carbidiimide (EDC) were mixed and injected for 420 sec to activate the CM5 chip surface. The diluted antibody was injected for 360 seconds followed by 1 M ethanolamine for 420 seconds. The flowpath was then switched to flowpath 2. A new EDC/NHS mixture was prepared and the procedure was repeated for flow cell 2. The surface was conditioned by 2 injections of 30 sec using flowpath 1, 2 at 30 μL/min of 3M MgCl₂. For the anti-mouse surface, 10 μL anti-mouse IgG (polyclonal rabbit anti-mouse IgG) from mouse antibody capture kit (GE Healthcare) was diluted to 30 μL/mL in 324 μL final immobilization buffer (10 mM sodium acetate, pH 5.0). The flow rate was set to 5 μL/min, flowpath 3. Fifty μL NHS and 50 μL EDC were mixed and injected for 420 sec to activate the chip surface. The diluted antibody was injected for 420 sec. 1 M ethanolamine was injected for 420 sec. Flow path was switched to flowpath 4. A new EDC/NHS mixture was prepared and the procedure was repeated for flow cell 4. The surface was conditioned by 2 injections of 30 sec using flowpath 3, 4 at 30 μL/min of 10 mM glycine, pH 1.7.
Tau binding for humanized mAbs was analyzed by BIAcore™ in two different formats. The first format was performed as above, i.e. mAbs were captured with an immobilized species-specific anti-Fc antibody. […] In the second format, biotinylated mAbs were captured on a streptavidin-coated chip. This latter format allowed direct comparison of Tau binding affinity between humanized and the parental mouse antibody since the capture method was identical.
The final humanized mAbs were analyzed by BIAcore™ to determine the kₐ, kd, and KD for binding to Tau as above (Table 10).

Kd [nM]	koff [s⁻¹]	kon [M⁻¹ s⁻¹]	Binder
0.15	0.00022	1.49e+06	B2
0.25	0.00039	1.61e+06	B3
0.13	0.00014	1.11e+06	B1
0.13	0.00013	985000	B4
0.22	0.00037	1.71e+06	B5
0.13	0.00011	809000	B6
0.09	9e-05	948000	B7

Target: T1, HVPGG site of Tau (15-mer array …)
Assay: peptide microarray; HVPGG site of the fourth repeat region against HQPGG (repeat region 1)
Description: (§2) The diluted antibody was incubated on the chip for 16 hours at 4° C. with shaking at 140 rpm. Primary antibody was removed and the chip was washed in PBS (pH 7.4)/0.05% Tween 20. Wash buffer was removed and goat anti-mouse IgG (H+L) DyLight™680 (1:5000) and an anti-HA tag DyLight™ 800 (1:2000) in the same buffer as the primary antibody was then incubated for 45 minutes at room temperature on the chip. Detection antibody was removed and the chip was washed once again as previously. Fluorescence images were acquired on the LI-COR Odyssey™ Imaging System and the microarray data was finally analyzed using the PepSlide™ Analyser software.

fold preference in binding (average signal intensities) [fold]	Binder
99	B2
77	B1

Target: T1, HVPGG site of Tau (15-mer array …)
Assay: peptide microarray; HVPGG site of the second repeat region against HQPGG (repeat region 1)
Description: as §2

fold preference in binding (average signal intensities) [fold]	Binder
108	B2
65	B1

target: T2, Human Tau 2N4R, wild type, recombinant …; assay: SPR, streptavidin capture; against ms7G6
Description: (§3) 400 μg of each antibody was diluted to 2 mg/mL and buffer-exchanged into 0.1 M sodium bicarbonate, pH 8.3 using 0.5 mL Zeba™ 40 kDa MWCO desalting columns (Thermo). NHS-PEG4-biotin, prepared immediately before use by dissolving in water to a 20 mM final stock concentration, was added to antibodies at a 5:1 molar ratio (biotin:MAb) and conjugated for 1 hr at room temperature. Excess biotin was removed by two sequential buffer exchanges into 1×DPBS using 0.5 mL Zeba™ 40 kDa MWCO desalting columns. For the BIAcore™ assay, antibodies were diluted to 2 μg/mL in PBS-P+/0.2% BSA (the same preparation used for the running buffer), centrifuged at 14,000 g for 5 min at room temperature, and the supernatant transferred to a new tube. Injection time was subsequently determined for each antibody to achieve a capture level of ˜225 RU.
(§4) Biotinylated humanized and mouse mAbs were captured on a streptavidin-coated chip and kₐ, kd, and KD were determined for binding to Tau (Table 11). […] The affinity of 7G6-HCzu8-LCzu6, 7G6-HCzu24-LCzu15, 7G6-HCzu24-LCzu18, 7G6-HCzu25-LCzu15, and 7G6-HCzu25-LCzu18 were all similar.

fold drop in affinity [fold]	Binder
~1.4	B2
~1.4	B1
~1.4	B4
~1.4	B6
~1.4	B7

target: T2, Human Tau 2N4R, wild type, recombinant …; assay: SPR BIAcore, biotinylated mAb on streptavidin (CAP) chip, single cycle, 1:1 Langmuir
Description: as §3, §4

Kd [nM]	koff [s⁻¹]	kon [M⁻¹ s⁻¹]	Binder
0.0915	0.000258	2.82e+06	B2
0.138	0.000313	2.28e+06	B8
0.152	0.000332	2.18e+06	B3
0.0881	0.000307	3.5e+06	B1
0.0998	0.00027	2.71e+06	B4
0.182	0.00039	2.14e+06	B5
0.0898	0.000487	5.42e+06	B6
0.0797	0.000304	3.81e+06	B7

target: T2, Human Tau 2N4R, wild type, recombinant …; assay: SPR, streptavidin capture; against 7G6-HCzu8-LCzu6
Description: as §3, §4

fold drop in affinity [fold]	Binder
< 2	B8

Target: T1, HVPGG site of Tau (15-mer array …)
Assay: peptide microarray; HVPGG site of the second repeat region against HKPGG (repeat region 3)
Description: as §2

fold preference in binding (average signal intensities) [fold]	Binder
104	B2
100	B1

target: T2, Human Tau 2N4R, wild type, recombinant …; assay: SPR BIAcore, mAb captured by anti-human IgG, Tau flowed, 1:1 Langmuir
Description: as §1
Binding of humanized and mouse antibodies were analyzed by surface plasmon resonance (BIAcore™) to determine their relative association rates (kₐ), dissociation rates (kd), and equilibrium binding constants (KD). Anti-mouse or anti-human antibodies were immobilized on a CM5 chip and sample mAbs were captured on the chip. 2N4R Tau was flowed over the chip and binding observed. The binding constants kₐ, kd, and KD were determined using a 1:1 Langmuir fitting model.

Kd [nM]	koff [s⁻¹]	kon [M⁻¹ s⁻¹]	Binder
0.0968	0.00021	2.17e+06	B2

Target: T1, HVPGG site of Tau (15-mer array …)
Assay: peptide microarray; HVPGG site of the fourth repeat region against HKPGG (repeat region 3)
Description: as §2

fold preference in binding (average signal intensities) [fold]	Binder
95	B2
119	B1

target: T2, Human Tau 2N4R, wild type, recombinant …; assay: SPR, streptavidin capture; against 7G6-HCzu24 and 7G6-HCzu25 mAbs
Description: as §3, §4

fold drop in affinity [fold]	Binder
~2	B3
~2	B5
